To fix the notation:
T1: rabbit-lung angiotensin converting enzyme (ACE) (Sigma) (rabbit, UniProt P12822 34-1310, limits assumed)
T1 sequence (looked up): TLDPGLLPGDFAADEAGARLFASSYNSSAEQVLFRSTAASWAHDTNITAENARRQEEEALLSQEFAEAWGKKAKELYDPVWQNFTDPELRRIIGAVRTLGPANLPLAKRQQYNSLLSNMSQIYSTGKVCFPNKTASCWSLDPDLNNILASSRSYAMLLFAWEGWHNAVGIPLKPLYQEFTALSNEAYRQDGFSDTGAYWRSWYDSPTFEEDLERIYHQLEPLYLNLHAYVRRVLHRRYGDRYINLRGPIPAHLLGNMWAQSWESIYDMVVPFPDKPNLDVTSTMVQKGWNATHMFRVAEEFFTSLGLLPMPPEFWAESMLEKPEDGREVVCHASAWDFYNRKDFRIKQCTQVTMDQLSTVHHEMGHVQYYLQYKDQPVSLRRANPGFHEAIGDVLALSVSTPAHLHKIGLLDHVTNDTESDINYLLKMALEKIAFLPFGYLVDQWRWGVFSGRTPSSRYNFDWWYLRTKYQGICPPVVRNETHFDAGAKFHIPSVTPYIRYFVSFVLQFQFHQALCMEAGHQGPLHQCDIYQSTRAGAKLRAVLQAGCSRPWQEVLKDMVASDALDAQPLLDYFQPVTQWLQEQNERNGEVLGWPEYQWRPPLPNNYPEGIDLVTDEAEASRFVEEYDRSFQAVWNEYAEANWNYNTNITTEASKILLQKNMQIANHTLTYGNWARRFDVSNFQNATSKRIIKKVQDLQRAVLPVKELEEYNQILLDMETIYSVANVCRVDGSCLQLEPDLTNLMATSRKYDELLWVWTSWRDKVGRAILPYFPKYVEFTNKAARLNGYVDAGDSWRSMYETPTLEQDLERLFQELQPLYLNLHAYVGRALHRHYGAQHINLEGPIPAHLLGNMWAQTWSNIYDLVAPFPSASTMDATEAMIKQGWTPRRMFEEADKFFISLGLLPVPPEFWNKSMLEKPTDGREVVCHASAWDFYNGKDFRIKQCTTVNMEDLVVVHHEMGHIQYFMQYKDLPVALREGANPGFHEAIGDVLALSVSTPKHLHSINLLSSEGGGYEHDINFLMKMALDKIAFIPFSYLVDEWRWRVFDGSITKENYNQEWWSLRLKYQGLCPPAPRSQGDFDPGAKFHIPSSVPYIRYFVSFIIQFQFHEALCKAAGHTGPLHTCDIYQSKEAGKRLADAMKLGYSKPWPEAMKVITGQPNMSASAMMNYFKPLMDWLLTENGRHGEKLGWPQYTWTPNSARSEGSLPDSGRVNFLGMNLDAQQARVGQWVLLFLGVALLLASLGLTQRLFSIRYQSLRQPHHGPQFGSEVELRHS

B1: SEQ ID NO: 4 peptide LEEFCC (peptide)
peptide: LEEFCC
B2: SEQ ID NO: 1 peptide RDGGYCC (peptide)
peptide: RDGGYCC
B3: SEQ ID NO: 3 peptide YGCGCDPL (peptide)
peptide: YGCGCDPL
B4: SEQ ID NO: 2 peptide YYCPADCPS (peptide)
peptide: YYCPADCPS
B5: SEQ ID NO: 5 peptide HCGCNTH (peptide)
peptide: HCGCNTH
B6: SEQ ID NO: 7 peptide CCGNAVPQ (peptide)
peptide: CCGNAVPQ
B7: SEQ ID NO: 6 peptide WAAGYCC (peptide)
peptide: WAAGYCC

The target of this assay is T1, rabbit-lung angiotensin converting …. Description: cell-based or functional assay.
Regarding B1, the “ACE inhibitory activity, IC50” value worked out at 2580 nM.

As for B2, the “ACE inhibitory activity, IC50” value was 840 nM.

On to B3, for which the “ACE inhibitory activity, IC50” value was 1850 nM.

As for B4, the “ACE inhibitory activity, IC50” value came out at 1640 nM.

For the molecule B5, the “ACE inhibitory activity, IC50” value was 2590 nM.

In the case of B6, the “ACE inhibitory activity, IC50” value was 39600 nM.

B7: the “ACE inhibitory activity, IC50” value stood at 6880 nM.
